Experiments:
[1] = test system: PN17 pancreatic tumor cells; assay: PN17 pancreatic tumor xenograft model; type: in vivo, NOD/SCID mice; conditions: antibody 15 mg/kg twice a week or gemcitabine 5 mg/kg once a week, intraperitoneally, FIG. 7
Procedure: PN17 pancreatic tumor cells were injected subcutaneously into the flanks of NOD/SCID mice. 10,000 cells were injected per animal. Mice were monitored weekly and tumors were allowed to grow until they were approximately 145 mm^3. The mice were randomized into four treatment groups (n=10 mice/group) and treated with either control antibody (LZ-1), anti-Jagged 64M51, gemcitabine or a combination of 64M51 and gemcitabine. Gemcitabine was administered intraperitoneally at a dose of 5 mg/kg once a week and antibodies were administered intraperitoneally at a dose of 15 mg/kg twice a week.

[2] = test system: human Jagged1-induced Notch2 activation; assay: Notch luciferase reporter assay, two cell population format; type: cell-based; conditions: Example 14; PC3 cells; antibody 50 to 0.2 μg/ml; FIG. 12B
From the text: (§1) The ability of Jagged antibodies to inhibit Jagged-induced Notch signaling was also investigated using a two cell population assay format. One population of human PC3 cells was transfected with an expression vector encoding a full-length Notch2 receptor as well as plasmids encoding a Notch-dependent firefly luciferase reporter construct (8×CBF luciferase) and a Renilla luciferase reporter (Promega, Madison Wis.) as an internal transfection control. A second population of human PC3 cells was transfected with an expression vector encoding a full-length cDNA for either hJagged1 or hJagged2. Aliquots of the two cell populations were mixed together and incubated overnight in the presence of 64M51, 64R7 or 64R1B antibodies that were serially diluted 1:4 from 40 to 0.039 μg/ml, luciferase levels were measured 18 hours later using a dual luciferase assay kit (Promega, Madison, Wis.) with firefly luciferase activity normalized to Renilla luciferase activity. Shown is a titration of 64M51, 64R1B and 64R7 antibodies in this assay.
(§2) The ability of Jagged antibodies 133R0201, 133R0203, 133R0205, 133R0207, 133R0208, 133R0209 and 133R0210 to inhibit Jagged-induced Notch signaling was investigated using a two cell population assay format as described above in Example 6. One population of human PC3 cells was transfected with an expression vector encoding a full-length Notch2 receptor as well as plasmids encoding a Notch-dependent firefly luciferase reporter construct (8×CBF luciferase) and a Renilla luciferase reporter (Promega, Madison Wis.) as an internal transfection control. A second population of human PC3 cells was transfected with an expression vector encoding a full-length cDNA for either hJagged1 or hJagged2. Aliquots of the two cell populations were mixed together and incubated overnight in the presence of antibodies 64R7, 133R0201, 133R0203, 133R0205, 133R0207, 133R0208, 133R0209 and 133R0210 that were serially diluted 1:3 from 50 to 0.2 μg/ml. Luciferase levels were measured 18 hours later using a dual luciferase assay kit (Promega, Madison, Wis.) with firefly luciferase activity normalized to Renilla luciferase activity. Shown in FIGS. 12A and 12B are titrations of the antibodies in this assay.

[3] = test system: human Jagged2-induced Notch activation; assay: as above; type: cell-based; conditions: Example 14; PC3 cells; antibody 50 to 0.2 μg/ml; FIG. 12A
From the text: as §1, §2

OMP-Lu45 cells = assay: Lu45 lung tumor xenograft model (Example 16); type: in vivo, NOD/SCID mice; conditions: FIG. 14; for reduction of tumor growth, antibody in combination with taxol relative to taxol alone: antibody 15 mg/kg twice a week plus taxol 15 mg/kg once a week
Procedure: The anti-tumor activity of antibodies 64R7, 133R0201, 133R0203, 133R0205 and 133R206 was evaluated in the lung Lu45 tumor xenograft model. Dissociated OMP-Lu45 cells (50,000 per animal) were injected subcutaneously into 6-8 week old male NOD/SCID mice. Tumor growth was monitored weekly and tumor measurements were initiated once tumors were palpable. On day 41, mice with average tumor volumes of 132 mm^3 were randomized into 10 groups of 10 animals each. Animals were injected with control antibody, antibody 64R7, antibody 133R0201, antibody 133R0203, antibody 133R0205, antibody 133R0206 (all at 15 mg/kg), taxol (15 mg/kg), a combination of antibody 64R7 and taxol, a combination of antibody 133R0203 and taxol, or a combination of antibody 133R0205 and taxol. Administration of the antibodies and taxol was performed via injection into the intra-peritoneal cavity, once a week for taxol and twice a week for antibodies. Tumors were measured twice a week and tumor volume was determined using the formula ½(a×b^2); where a=length, and b=breadth. Data are expressed as mean and mean±S.E.M. Group means were compared using Student's two-tailed, unpaired t test.

OMP-Lu42 cells = assay: Lu42 lung tumor xenograft model; type: in vivo, NOD/SCID mice; conditions: 15 mg/kg intraperitoneally twice a week, FIG. 13
Procedure: The anti-tumor activity of antibodies 64R7, 133R0203, and 133R0205 were evaluated in the lung Lu42 tumor xenograft model. Dissociated OMP-Lu42 cells (50,000 per animal) were injected subcutaneously into 6-8 week old male NOD/SCID mice. Tumor growth was monitored weekly and tumor measurements were initiated once tumors were palpable. On day 54, mice with average tumor volumes of 114 mm^3 were randomized into 4 groups of 10 animals each. Animals were injected with 15 mg/kg of either control antibody, antibody 64R7, antibody 133R0203, or antibody 133R0205. Administration of the antibodies was performed via injection into the intraperitoneal cavity, twice a week. Tumors were measured twice a week and tumor volume was determined using the formula ½(a×b^2); where a=length, and b=breadth. Data are expressed as mean and mean±S.E.M. Group means were compared using Student's two-tailed, unpaired t test.

| Molecule | tumor growth, single agent [1] | inhibition of human Jagged1-induced Notch activation, two cell population assay [2] | inhibition of human Jagged2-induced Notch activation, two cell population assay [3] | reduction in tumor growth, single agent compared to control antibody (OMP-Lu45 cells; 15 mg/kg twice a week) | reduction in tumor growth, single agent compared to control antibody (OMP-Lu42 cells) | reduction of tumor growth, antibody in combination with taxol relative to taxol alone (OMP-Lu45 cells) |
| --- | --- | --- | --- | --- | --- | --- |
| Nc1ccn([C@@H]2O[C@H](CO)[C@@H](O)C2(F)F)c(=O)n1 [gemcitabine, reference compound] | transient initial response | – | – | – | – | – |
| 133R0201: 64R7 variant anti-Jagged antibody; heavy chain variable region SEQ ID NO:50, light chain variable region SEQ ID NO:21 (antibody, V domains shown, 133R0201 Heavy chain variable region; 64R7 Light chain variable region) VH: QVQLVESGGGVVQPGRSLRLSCAASGFTFSSYAMHWVRQAPGKGLEWVAAIYPDSSNKYYADSVKGRFTISRDNSKNTLYLQMNSLRAEDTAVYYCARDKYDIPDAFDIWGQGTLVTVS VL: DIRMTQSPSSLSASVGDRVTITCRASQGISNDLAWYQQKPGKVPRLLIYATSTLQSGVPSRFSGSGSATDFTLTISSLQPEDVATYYCQQSYNAPITFGQGTRLEIK | – | inhibitors | inhibitors | 24% | – | – |
| 133R0205: 64R7 variant anti-Jagged antibody; heavy chain variable region SEQ ID NO:52, light chain variable region SEQ ID NO:21 (antibody, V domains shown, 133R0205 Heavy chain variable region; 64R7 Light chain variable region) VH: QVQLVESGGGVVQPGRSLRLSCAASGFTFSSYAMHWVRQAPGKGLEWVAAIYPASSNKYYADSVKGRFTISRDNSKNTLYLQMNSLRAEDTAVYYCARDKYDIPDAFDIWGQGTLVTVS VL: DIRMTQSPSSLSASVGDRVTITCRASQGISNDLAWYQQKPGKVPRLLIYATSTLQSGVPSRFSGSGSATDFTLTISSLQPEDVATYYCQQSYNAPITFGQGTRLEIK | – | inhibitors | inhibitors | – | 33% | reduction of tumor growth |
| 133R0203: 64R7 variant anti-Jagged antibody; heavy chain variable region SEQ ID NO:51, light chain variable region SEQ ID NO:21 (antibody, V domains shown, 133R0203 Heavy chain variable region; 64R7 Light chain variable region) VH: QVQLVESGGGVVQPGRSLRLSCAASGFTFSSYAMHWVRQAPGKGLEWVAAISPEASNKYYADSVKGRFTISRDNSKNTLYLQMNSLRAEDTAVYYCARDKYDIPDAFDIWGQGTLVTVS VL: DIRMTQSPSSLSASVGDRVTITCRASQGISNDLAWYQQKPGKVPRLLIYATSTLQSGVPSRFSGSGSATDFTLTISSLQPEDVATYYCQQSYNAPITFGQGTRLEIK | – | inhibitors | inhibitors | – | 28% | 36% |

Reference: patent US9416178B2, “Jagged-binding agents and uses thereof” (OncoMed Pharmaceuticals, Inc., priority 2009, dated 2016)
